Source: article PMC6233052 (Molecular Biology of the Cell, 2018)

T1: HA-tagged constitutively active R-ras (G38V) (UniProt P10301 1-218, G38V)
T1 sequence: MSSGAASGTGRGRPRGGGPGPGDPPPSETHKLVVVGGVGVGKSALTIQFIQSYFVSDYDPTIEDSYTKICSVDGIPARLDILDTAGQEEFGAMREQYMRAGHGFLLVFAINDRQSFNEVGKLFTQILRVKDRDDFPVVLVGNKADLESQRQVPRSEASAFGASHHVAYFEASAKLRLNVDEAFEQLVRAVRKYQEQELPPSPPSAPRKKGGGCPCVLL

T2: HA-tagged CA R-ras mutant (P202A; P203A) (UniProt P10301 1-218, G38V | P202A | P203A)
T2 sequence: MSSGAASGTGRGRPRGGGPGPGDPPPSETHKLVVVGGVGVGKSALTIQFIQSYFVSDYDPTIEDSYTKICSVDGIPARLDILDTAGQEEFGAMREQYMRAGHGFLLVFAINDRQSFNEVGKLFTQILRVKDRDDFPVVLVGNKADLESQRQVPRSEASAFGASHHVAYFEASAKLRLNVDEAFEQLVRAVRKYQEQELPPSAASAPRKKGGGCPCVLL

T3: HA-tagged WT R-ras (UniProt P10301 1-218)
T3 sequence: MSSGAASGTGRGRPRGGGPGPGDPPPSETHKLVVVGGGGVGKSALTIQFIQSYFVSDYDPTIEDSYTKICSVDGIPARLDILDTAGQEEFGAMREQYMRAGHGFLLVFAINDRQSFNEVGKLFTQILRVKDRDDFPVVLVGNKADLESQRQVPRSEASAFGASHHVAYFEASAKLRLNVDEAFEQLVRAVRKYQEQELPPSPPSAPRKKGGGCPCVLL

T4: HA-tagged full-length FliI (UniProt Q9JJ28 1-1271)
T4 sequence: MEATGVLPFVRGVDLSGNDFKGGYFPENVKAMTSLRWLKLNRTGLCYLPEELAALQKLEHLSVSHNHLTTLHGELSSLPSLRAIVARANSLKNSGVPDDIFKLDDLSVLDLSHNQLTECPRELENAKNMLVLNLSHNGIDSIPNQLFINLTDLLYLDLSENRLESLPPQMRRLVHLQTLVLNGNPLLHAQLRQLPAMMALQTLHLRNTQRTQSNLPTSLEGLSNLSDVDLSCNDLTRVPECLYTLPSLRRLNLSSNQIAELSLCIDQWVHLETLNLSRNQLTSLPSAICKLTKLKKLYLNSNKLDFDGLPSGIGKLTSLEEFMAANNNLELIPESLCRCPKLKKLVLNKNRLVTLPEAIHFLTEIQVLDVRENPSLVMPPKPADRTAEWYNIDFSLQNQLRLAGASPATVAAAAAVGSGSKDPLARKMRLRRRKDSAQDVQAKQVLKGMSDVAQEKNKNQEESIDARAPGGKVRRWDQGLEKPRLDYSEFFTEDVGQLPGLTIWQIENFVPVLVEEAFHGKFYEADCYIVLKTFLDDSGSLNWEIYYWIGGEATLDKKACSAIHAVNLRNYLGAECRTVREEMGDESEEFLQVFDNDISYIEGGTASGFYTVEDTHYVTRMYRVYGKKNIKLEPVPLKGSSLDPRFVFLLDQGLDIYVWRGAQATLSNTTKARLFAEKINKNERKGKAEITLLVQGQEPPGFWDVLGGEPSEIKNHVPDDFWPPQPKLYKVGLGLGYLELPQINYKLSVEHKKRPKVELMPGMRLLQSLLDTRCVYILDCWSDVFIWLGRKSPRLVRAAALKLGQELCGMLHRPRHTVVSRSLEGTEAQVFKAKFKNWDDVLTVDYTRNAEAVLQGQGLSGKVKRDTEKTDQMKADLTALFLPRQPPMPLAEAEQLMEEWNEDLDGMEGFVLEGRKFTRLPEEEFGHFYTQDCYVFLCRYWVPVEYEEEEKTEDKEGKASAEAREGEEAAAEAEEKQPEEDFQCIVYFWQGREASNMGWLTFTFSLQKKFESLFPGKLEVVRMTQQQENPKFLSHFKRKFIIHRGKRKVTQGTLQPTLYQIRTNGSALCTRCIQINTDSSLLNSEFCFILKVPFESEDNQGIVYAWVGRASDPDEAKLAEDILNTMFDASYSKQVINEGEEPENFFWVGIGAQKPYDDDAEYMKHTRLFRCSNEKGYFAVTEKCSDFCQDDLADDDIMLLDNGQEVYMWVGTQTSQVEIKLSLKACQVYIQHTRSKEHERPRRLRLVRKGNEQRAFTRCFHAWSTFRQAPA


Tests used:
Assay in all cases: co-IP
[1] = target: T1, HA-tagged constitutively active R-ras …
[2] = target: T2, HA-tagged CA R-ras mutant (P202A; P203A)
[3] = target: T3, HA-tagged WT R-ras
[4] = target: HA-tagged FliI LRR
[5] = target: T4, HA-tagged full-length FliI

Binder | fold association compared with DN R-ras [1] [fold] | fold reduction of association compared with CA R-ras [2] [fold] | fold association compared with DN R-ras [3] [fold] | fold association compared with FliI GLD [4] [fold] | fold association compared with FliI GLD [5] [fold]
Flightless I (FliI), endogenous (natural protein) MEATGVLPFVRGVDLSGNDFKGGYFPENVKAMTSLRWLKLNRTGLCYLPEELAALQKLEHLSVSHNHLTTLHGELSSLPSLRAIVARANSLKNSGVPDDIFKLDDLSVLDLSHNQLTECPRELENAKNMLVLNLSHNGIDSIPNQLFINLTDLLYLDLSENRLESLPPQMRRLVHLQTLVLNGNPLLHAQLRQLPAMMALQTLHLRNTQRTQSNLPTSLEGLSNLSDVDLSCNDLTRVPECLYTLPSLRRLNLSSNQIAELSLCIDQWVHLETLNLSRNQLTSLPSAICKLTKLKKLYLNSNKLDFDGLPSGIGKLTSLEEFMAANNNLELIPESLCRCPKLKKLVLNKNRLVTLPEAIHFLTEIQVLDVRENPSLVMPPKPADRTAEWYNIDFSLQNQLRLAGASPATVAAAAAVGSGSKDPLARKMRLRRRKDSAQDVQAKQVLKGMSDVAQEKNKNQEESIDARAPGGKVRRWDQGLEKPRLDYSEFFTEDVGQLPGLTIWQIENFVPVLVEEAFHGKFYEADCYIVLKTFLDDSGSLNWEIYYWIGGEATLDKKACSAIHAVNLRNYLGAECRTVREEMGDESEEFLQVFDNDISYIEGGTASGFYTVEDTHYVTRMYRVYGKKNIKLEPVPLKGSSLDPRFVFLLDQGLDIYVWRGAQATLSNTTKARLFAEKINKNERKGKAEITLLVQGQEPPGFWDVLGGEPSEIKNHVPDDFWPPQPKLYKVGLGLGYLELPQINYKLSVEHKKRPKVELMPGMRLLQSLLDTRCVYILDCWSDVFIWLGRKSPRLVRAAALKLGQELCGMLHRPRHTVVSRSLEGTEAQVFKAKFKNWDDVLTVDYTRNAEAVLQGQGLSGKVKRDTEKTDQMKADLTALFLPRQPPMPLAEAEQLMEEWNEDLDGMEGFVLEGRKFTRLPEEEFGHFYTQDCYVFLCRYWVPVEYEEEEKTEDKEGKASAEAREGEEAAAEAEEKQPEEDFQCIVYFWQGREASNMGWLTFTFSLQKKFESLFPGKLEVVRMTQQQENPKFLSHFKRKFIIHRGKRKVTQGTLQPTLYQIRTNGSALCTRCIQINTDSSLLNSEFCFILKVPFESEDNQGIVYAWVGRASDPDEAKLAEDILNTMFDASYSKQVINEGEEPENFFWVGIGAQKPYDDDAEYMKHTRLFRCSNEKGYFAVTEKCSDFCQDDLADDDIMLLDNGQEVYMWVGTQTSQVEIKLSLKACQVYIQHTRSKEHERPRRLRLVRKGNEQRAFTRCFHAWSTFRQAPA | 3.5 | 4 | 2.5 | – | –
R-ras, endogenous (natural protein) MSSGAASGTGRGRPRGGGPGPRDPPPGETHKLVVVGGGGVGKSALTIQFIQSYFVSDYDPTIEDSYTKICTVDGIPARLDILDTAGQEEFGAMREQYMRAGNGFLLVFAINDRQSFNEVGKLFTQILRVKDRDDFPIVLVGNKADLENQRQVLRSEASSFSASHHMTYFEASAKLRLNVDEAFEQLVRAVRKYQEQELPPSPPSAPRKKDGGCPCVLL | – | – | – | 4 | 4.6
